The values below come from article PMC3548456.

For this assay, the target named is CI-MPR domains 10-13, receptor construct 1288 (wild-type IGF-II binding domain) (human) (UniProt P11717). The experiment in a line: SPR.
Chain of CI-MPR domains 10-13, receptor construct 1288 (wild-type IGF-II binding domain) (human) (P11717 1363-1988): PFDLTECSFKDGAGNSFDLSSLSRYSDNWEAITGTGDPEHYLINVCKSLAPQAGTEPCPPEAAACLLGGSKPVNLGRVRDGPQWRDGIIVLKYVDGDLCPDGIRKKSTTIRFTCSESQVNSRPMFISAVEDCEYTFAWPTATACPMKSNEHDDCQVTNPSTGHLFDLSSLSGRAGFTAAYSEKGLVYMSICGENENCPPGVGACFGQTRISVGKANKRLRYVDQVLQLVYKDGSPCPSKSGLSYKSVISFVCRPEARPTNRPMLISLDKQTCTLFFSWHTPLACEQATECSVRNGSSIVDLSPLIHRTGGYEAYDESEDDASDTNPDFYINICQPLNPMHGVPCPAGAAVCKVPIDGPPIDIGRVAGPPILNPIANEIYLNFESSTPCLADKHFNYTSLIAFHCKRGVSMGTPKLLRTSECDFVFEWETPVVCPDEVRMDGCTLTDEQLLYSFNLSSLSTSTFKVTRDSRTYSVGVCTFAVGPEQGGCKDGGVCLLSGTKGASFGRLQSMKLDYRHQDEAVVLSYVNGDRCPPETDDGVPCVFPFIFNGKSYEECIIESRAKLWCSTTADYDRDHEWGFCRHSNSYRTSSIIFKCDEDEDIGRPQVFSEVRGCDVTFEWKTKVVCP

For orientation: Kd means the equilibrium constant for the complex coming apart. High values mean weaker binding, low ones tighter binding. As a reminder, the koff is the first-order rate constant of dissociation. Low readings indicate a long-lived complex, high ones a short-lived complex. With “GILT-tagged GAA (BMN 701) (from UniProt P01344 32-91; P10253 70-952) (enzyme)”, the Kd amounted to 21 nM and the off-rate (koff) came to 0.0058 s⁻¹.
In turn, full-length recombinant IGF-II (ligand) came in with a Kd of 8.8 nM and a koff of 0.0034 s⁻¹.
